From publication PMC5779698, “Identification and analysis of OsttaDSP, a phosphoglucan phosphatase from Ostreococcus tauri” (PLoS ONE, 2018)

B1: OsttaDSP (Ostreococcus tauri) (protein)
chain: ATTTTRRGLADDDAYNAAMRAYSASPYEYKHDIGLYYHRIKPFLIVGTQPQTPADVDRLRETEGVTCVFNTQQEKDWKYWNVDYDSVRARAIETGMRHVRYPFEDFSADSLREGLPSAAAMLDAEIERGETVYLHCTAGMGRSPGLAIAYMYWFLDAYNTLDGAYEGLTSIRPCGPKKESIRGATCDLLAAIESDGKVEPLKRELEENEGVVLSIVSKERIQRAVRAMLLSTSDETVAKPWWKVW
notes: mature protein lacking the first 26 residues (predicted chloroplast transit peptide), 245 residues, N-terminal His6 tag kept, synthetic gene, pRSFDuet-1, E. coli BL21(DE3) pLys; homodimer

How the values were obtained:
[1] = biological target: OsttaDSP, dual specific phosphatase from Ostreococcus tauri, mature protein lacking the chloroplast transit peptide (Ostreococcus tauri); experiment: SEC; HiPrep Sephacryl S-300 High-Resolution column, calibrated with a molecular weight kit; affinity-purified mature OsttaDSP, single peak of an estimated 54.4 kDa
purified protein = substrate: O=[N+]([O-])c1ccc(OP(=O)(O)O)cc1; experiment: purified protein; assay type: biochemical, Ostreococcus tauri; details: pH 7, 37 °C, 2 mM DTT, hyperbolic saturation

Molecule | stoichiometry N [1] | K0.5 (purified protein) [mM]
OsttaDSP, dual specific phosphatase from Ostreococcus tauri, mature protein lacking the chloroplast transit peptide (enzyme) | 2 | –
B1 | – | 22.7 ± 3.4
